Measured values reported in the supplement of paper PMC9112550, “Optimization of the antimicrobial peptide Bac7 by deep mutational scanning” (BMC Biology, 2022).

Tested on: Escherichia coli TOP10
Assay: shrunken log2 fold change of peptide-encoding DNA abundance (4.5 h post-induction vs induction); higher = less antimicrobial activity (less host growth inhibition)
Settings: time post-induction: 4.5 h; library: site-saturation at positions 5, 18, 19, 20
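Note: peptides expressed intracellularly from a pBAD plasmid library in pooled LB shake-flask culture, induced with 0.3% L-arabinose, DNA abundance read by NGS, three biological replicates, DESeq2 with apeglm shrinkage.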

Sequence	shrunken log2 fold change
RRIRVRPPRLPRPRPRPYEKPRP	-0.293
RRIRPRPPRLPRPRPRPFMLPRP	-0.378
RRIRERPPRLPRPRPRPEPIPRP	-0.00736
RRIRERPPRLPRPRPRPEQQPRP	-0.0255
RRIRKRPPRLPRPRPRPYVIPRP	-0.112
RRIRWRPPRLPRPRPRPGRWPRP	0.742
RRIRTRPPRLPRPRPRPPLFPRP	0.482
RRIRVRPPRLPRPRPRPPNHPRP	-0.0404
RRIRNRPPRLPRPRPRPGMNPRP	-0.02
RRIRNRPPRLPRPRPRPQGNPRP	-0.0905
RRIRGRPPRLPRPRPRPCDNPRP	0.0785
RRIRQRPPRLPRPRPRPMIKPRP	-0.318
RRIRPRPPRLPRPRPRPMFPPRP	0.0316
RRIRQRPPRLPRPRPRPQDQPRP	-0.276
RRIRARPPRLPRPRPRPYHDPRP	-0.365
RRIRIRPPRLPRPRPRPYDQPRP	-0.295
RRIRYRPPRLPRPRPRPEVVPRP	-0.219
RRIRARPPRLPRPRPRPYRSPRP	-0.51
RRIRYRPPRLPRPRPRPCMTPRP	-0.34
RRIRDRPPRLPRPRPRPQWEPRP	0.033
RRIRVRPPRLPRPRPRPQNFPRP	-0.0453
RRIRWRPPRLPRPRPRPPNKPRP	0.206
RRIRVRPPRLPRPRPRPHNWPRP	-0.0818
RRIRHRPPRLPRPRPRPGHPPRP	-0.00757
RRIRYRPPRLPRPRPRPRVSPRP	-0.216

Sequence	shrunken log2 fold change
RRIRGRPPRLPRPRPRPWPHPRP	0.074
RRIRPRPPRLPRPRPRPGTVPRP	-0.182
RRIRNRPPRLPRPRPRPTHQPRP	0.194
RRIRRRPPRLPRPRPRPNETPRP	-0.0619
RRIRRRPPRLPRPRPRPPLHPRP	0.695
RRIRDRPPRLPRPRPRPYLVPRP	-0.506
RRIRCRPPRLPRPRPRPKRPPRP	0.158
RRIRARPPRLPRPRPRPMVCPRP	0.396
RRIRTRPPRLPRPRPRPTNQPRP	-0.067
RRIRGRPPRLPRPRPRPAANPRP	0.911
RRIRRRPPRLPRPRPRPSNKPRP	-0.101
RRIRLRPPRLPRPRPRPQQEPRP	0.0119
RRIRWRPPRLPRPRPRPFHMPRP	-0.138
RRIRNRPPRLPRPRPRPDAHPRP	0.0677
RRIRIRPPRLPRPRPRPFQEPRP	-0.0383
RRIRTRPPRLPRPRPRPQLWPRP	-0.13
RRIRVRPPRLPRPRPRPRTSPRP	0.0612
RRIRYRPPRLPRPRPRPYSNPRP	-0.127
RRIRKRPPRLPRPRPRPDDTPRP	2.31
RRIRKRPPRLPRPRPRPMSFPRP	0.106
RRIRDRPPRLPRPRPRPWVRPRP	-0.21
RRIRMRPPRLPRPRPRPYRRPRP	0.0224
RRIRIRPPRLPRPRPRPINPPRP	-0.362
RRIRDRPPRLPRPRPRPRSNPRP	0.148
RRIRFRPPRLPRPRPRPVHYPRP	-0.195

Sequence	shrunken log2 fold change
RRIRPRPPRLPRPRPRPKQTPRP	0.327
RRIRIRPPRLPRPRPRPARTPRP	0.0599
RRIRVRPPRLPRPRPRPKSMPRP	-0.362
RRIRLRPPRLPRPRPRPKYTPRP	-0.61
RRIRVRPPRLPRPRPRPYERPRP	0.0458
RRIRNRPPRLPRPRPRPPKVPRP	0.28
RRIRYRPPRLPRPRPRPQAYPRP	-0.00884
RRIRFRPPRLPRPRPRPLSVPRP	-0.271
RRIRHRPPRLPRPRPRPPTMPRP	-0.354
RRIRGRPPRLPRPRPRPPRKPRP	1.26
RRIRVRPPRLPRPRPRPYLCPRP	0.0235
RRIRVRPPRLPRPRPRPTEMPRP	-0.0269
RRIRDRPPRLPRPRPRPSQSPRP	-0.119
RRIRHRPPRLPRPRPRPSTFPRP	-0.0458
RRIRVRPPRLPRPRPRPVRFPRP	0.391
RRIRNRPPRLPRPRPRPEMYPRP	-0.0311
RRIRVRPPRLPRPRPRPPYSPRP	-0.384
RRIRVRPPRLPRPRPRPCEEPRP	0.24
RRIRNRPPRLPRPRPRPGAVPRP	0.248
RRIRIRPPRLPRPRPRPQAQPRP	-0.108
RRIRGRPPRLPRPRPRPENWPRP	0.594
RRIRDRPPRLPRPRPRPGHDPRP	0.207
RRIRYRPPRLPRPRPRPPQKPRP	-0.123
RRIRRRPPRLPRPRPRPLQNPRP	0.045
RRIRWRPPRLPRPRPRPAHLPRP	0.15

Sequence	shrunken log2 fold change
RRIRGRPPRLPRPRPRPAEAPRP	1.08
RRIRERPPRLPRPRPRPEYFPRP	-0.0105
RRIRSRPPRLPRPRPRPEHLPRP	-0.258
RRIRYRPPRLPRPRPRPQFGPRP	0.03
RRIRARPPRLPRPRPRPKNKPRP	0.216
RRIRMRPPRLPRPRPRPVWCPRP	-0.0672
RRIRRRPPRLPRPRPRPNWPPRP	0.118
RRIRLRPPRLPRPRPRPDDQPRP	0.101
RRIRWRPPRLPRPRPRPHHCPRP	-0.239
RRIRYRPPRLPRPRPRPHVDPRP	-0.588
RRIRKRPPRLPRPRPRPKLSPRP	-0.0159
RRIRYRPPRLPRPRPRPNVTPRP	-0.573
RRIRIRPPRLPRPRPRPVYMPRP	-0.678
RRIRDRPPRLPRPRPRPISYPRP	-0.381
RRIRRRPPRLPRPRPRPHFYPRP	0.0714
RRIRQRPPRLPRPRPRPTKPPRP	0.0859
RRIRMRPPRLPRPRPRPPVWPRP	0.825
RRIRQRPPRLPRPRPRPDIGPRP	-0.0932
RRIRNRPPRLPRPRPRPVDGPRP	-0.175
RRIRDRPPRLPRPRPRPTAVPRP	0.421
RRIRHRPPRLPRPRPRPRKEPRP	-0.0122
RRIRERPPRLPRPRPRPWACPRP	0.0618
RRIRARPPRLPRPRPRPPTIPRP	0.0349
RRIRRRPPRLPRPRPRPIAWPRP	0.0624
RRIRTRPPRLPRPRPRPPKVPRP	0.286

Sequence	shrunken log2 fold change
RRIRVRPPRLPRPRPRPQHRPRP	0.0105
RRIRVRPPRLPRPRPRPAQRPRP	0.184
RRIRGRPPRLPRPRPRPFVDPRP	0.571
RRIRIRPPRLPRPRPRPMCMPRP	-0.216
RRIRMRPPRLPRPRPRPKSSPRP	0.763
RRIRIRPPRLPRPRPRPNEWPRP	-0.00088
RRIRVRPPRLPRPRPRPWMTPRP	-0.0714
RRIRARPPRLPRPRPRPVSDPRP	0.576
RRIRARPPRLPRPRPRPNPAPRP	0.796
RRIRDRPPRLPRPRPRPRPCPRP	0.429
RRIRHRPPRLPRPRPRPLYEPRP	-0.211
RRIRNRPPRLPRPRPRPSYVPRP	-0.0484
RRIRCRPPRLPRPRPRPHREPRP	-0.0514
RRIRVRPPRLPRPRPRPDKDPRP	-0.337
RRIRKRPPRLPRPRPRPFLDPRP	0.0893
RRIRNRPPRLPRPRPRPTSPPRP	0.113
RRIRCRPPRLPRPRPRPFHCPRP	-0.451
RRIRLRPPRLPRPRPRPRMYPRP	-0.166
RRIRCRPPRLPRPRPRPHQPPRP	0.0495
RRIRGRPPRLPRPRPRPNWVPRP	0.325
RRIRPRPPRLPRPRPRPILNPRP	-0.339
RRIRQRPPRLPRPRPRPNGDPRP	0.0171
RRIRVRPPRLPRPRPRPFIPPRP	-0.535
RRIRGRPPRLPRPRPRPKVGPRP	0.721
RRIRARPPRLPRPRPRPRSLPRP	0.0678

Sequence	shrunken log2 fold change
RRIRERPPRLPRPRPRPFLHPRP	-0.332
RRIRNRPPRLPRPRPRPRFNPRP	-0.766
RRIRHRPPRLPRPRPRPESWPRP	-0.00647
RRIRCRPPRLPRPRPRPFCVPRP	-0.248
RRIRERPPRLPRPRPRPGCKPRP	0.0591
RRIRWRPPRLPRPRPRPAGNPRP	0.396
RRIRTRPPRLPRPRPRPWNRPRP	-0.0406
RRIRQRPPRLPRPRPRPWYLPRP	-0.176
RRIRTRPPRLPRPRPRPEEQPRP	0.0262
RRIRKRPPRLPRPRPRPMFNPRP	-0.0523
RRIRGRPPRLPRPRPRPSRPPRP	0.624
RRIRCRPPRLPRPRPRPWWGPRP	0.0769
RRIRDRPPRLPRPRPRPKGIPRP	0.0238
RRIRMRPPRLPRPRPRPKYCPRP	0.0472
RRIRTRPPRLPRPRPRPADDPRP	0.165
RRIRKRPPRLPRPRPRPGMTPRP	0.129
RRIRVRPPRLPRPRPRPVTNPRP	-0.68
RRIRYRPPRLPRPRPRPEREPRP	-0.0221
RRIRNRPPRLPRPRPRPNFLPRP	-0.0488
RRIRKRPPRLPRPRPRPISRPRP	-0.00748
RRIRGRPPRLPRPRPRPQIHPRP	0.32
RRIRIRPPRLPRPRPRPHKCPRP	-0.639
RRIRRRPPRLPRPRPRPVMSPRP	0.042
RRIRDRPPRLPRPRPRPDALPRP	0.306
RRIRVRPPRLPRPRPRPSKWPRP	-0.283
